Measurements from paper PMC8551079 (iScience, 2021).

Target: T1, glutathione S-transferase (GST)-fused ABI5 (Arabidopsis thaliana, UniProt Q9SJN0 1-442)
T1 sequence (looked up): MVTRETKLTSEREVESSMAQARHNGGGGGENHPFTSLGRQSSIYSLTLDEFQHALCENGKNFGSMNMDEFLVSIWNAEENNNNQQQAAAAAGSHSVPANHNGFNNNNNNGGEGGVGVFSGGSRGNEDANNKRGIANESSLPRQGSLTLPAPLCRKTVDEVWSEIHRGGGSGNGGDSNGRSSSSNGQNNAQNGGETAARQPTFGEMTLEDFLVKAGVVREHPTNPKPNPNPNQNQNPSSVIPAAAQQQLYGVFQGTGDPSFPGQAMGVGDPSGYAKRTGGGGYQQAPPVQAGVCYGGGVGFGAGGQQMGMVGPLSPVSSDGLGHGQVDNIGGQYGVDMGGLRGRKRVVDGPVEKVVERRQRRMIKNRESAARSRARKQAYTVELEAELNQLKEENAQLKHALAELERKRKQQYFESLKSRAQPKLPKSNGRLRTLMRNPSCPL
Assay: pull-down

- binding result: binds
B1: MYB70-His (natural protein)
chain: not shown
